Measured values from patent publication US10391180B2, “Self-assembling complex for targeting chemical agents to cells” (CEDARS-SINAI MEDICAL CENTER, priority 2007, dated 2019).

Key:
[1] = tested on: SKBR3, MDA-MB-435, MDA-MB-453, HeLa, MDA-MB-231; test: Cytotoxicity dose curves on lines displaying differential HER2 (CD50); assay type: cell-based; settings: range of HerDox doses
Experimental: FIGS. 17 (A)-(B) illustrates relative cell surface HER subunit levels and cytotoxicity on cell types. FIG. 17 (A) depicts a graph of relative cell surface HER subunit levels as measured by ELISA. Cells were incubated with anti-HER subunit antibodies followed by HRP-conjugated secondary antibodies using standard procedures. Relative cell numbers were measured by crystal violet staining and quantified by measuring crystal violet absorbance at 590 nm. Relative subunit levels are reported as the ELISA signal of each cell population normalized by the relative cell number, or Abs 450 run/590 nm. FIG. 17 (B) depicts toxicity to cells displaying differential HER2. Cytotoxicities from a range of HerDox doses were assessed on each cell line by metabolic assay and confirmed by crystal violet stain. CD50 values shown in log scale were determined by non-linear regression analyses of HerDox dose curves using a scientific graphing program and confirmed using a calculator. The relative HER2 level of each cell line is shown next to each CD50 value.
The inventors measured cell surface levels of HER subunits on various cell lines and types described herein, as previously described levels may not reflect the actual levels in the available cells used. The inventors acquired the indicated cell lines from ATCC and the NIH/NCI and profiled these with respect to HER subunit levels (FIG. 17 (A)). […]

[2] = HerDox stability in serum-containing media at 37° C (Ni beads); assay type: in vitro ADME; settings: 10% fetal bovine serum media
Experimental: FIGS. 6 (A)-(B) illustrates conjugate stability under different storage conditions, or in serum. As illustrated in FIG. 6 (A), HerDox was incubated up to 12 days at 4° C., RT, or 37° C. Samples were filtered through ultrafiltration spin columns every other day, and retentate and filtrate absorbances measured at 480 nm to determine relative Dox retention or release from conjugates, respectively. As illustrated in FIG. 6 (B), to mimic extended exposure to cells in culture medium, HerDox immobilized on Ni-NTA beads were incubated with bovine serum in DMEM for the indicated times at 37° C. before each sample was pelleted. Absorbance of supernatants (Filtrates) and bead eluates (Retentates) were measured at 480 nm to detect Dox. Relative Dox release or retention in serum is expressed as normalized to control (corresponding sample lacking serum). N=3 per time point.
The inventors tested the stability of HerDox over 12 days under different storage temperatures: 4° C., room temperature, or 37° C. On each day, a sample underwent ultrafiltration, then filtrates and retentates were measured to determine whether any Dox was released from the complex. […] The inventors also examined HerDox stability in serum-containing media at 37° C. […] Dox retention in the conjugate was also assessed by eluting the conjugate from the beads at each time point.

[3] = tested on: hearts of mice; test: Cardiac tissue histology and echocardiography; assay type: in vivo; settings: treated mice
Source text: FIGS. 12 (A)-(D) illustrates comparison of HerDox and Dox on (A) tumor growth, (B) animal weight, (C) cardiac tissue, and (D) cardiac function.
At 25 days following injections, tumors and organs were harvested and processed for histochemistry. It is established that Dox can induce acute and long-term cardiotoxicity, therefore, the inventors examined the hearts of mice treated with HerDox or Dox.

[4] = tested on: U251 human glioma cells; test: Toxicity to glioma cells, cell counting; assay type: cell-based; settings: 4 hours, counted after four days
Experimental: FIGS. 20 (A)-(B) illustrates HerDox is toxic to glioma cells. FIG. 20 (A) depicts HER immunofluorescence on U251 human glioma cells. Images were captured using laser scanning fluorescence confocal microscopy. FIG. 20 (B) depicts a graph of HerDox vs. Dox toxicity to U251 cells. Significant differences were determined by 2-tailed tests.
U251 cells growing in dishes were incubated with either HerDox or Dox (at either 0.5 uM or 1 uM) in the culture medium for 4 hours at 37° C., 5% C02, after which fresh complete medium was added to increase the final culture volume approximately four-fold, and the cells maintained at 37° C., 5% C02 for four days. Cells were trypsinized and counted on the last day.

B1: HerDox: non-covalent complex of HerPBK10, a small double-stranded nucleic acid and intercalated Dox (conjugate)
chain: LPPRLKEMKSQESAAGSKLVLRCETSSEYSSLRFKWFKNGNELNRKNKPQNIKIQKKPGKSELRINKASLADSGEYMCKVISKLGNDSASANITIVESNEIITGMPASTEGAYVSSESPIRISVSTEGANTSSSTSTSTTGTSHLVKCAEKEKTFCVNGGECFMVKDLSNPSRYLCKCQPGFTGARCTENVPMKVQNQEKAEELYMRRAAMYEEGPPPSYESVVSAAPVAAALGSPFDAPLDPPFVPPRYLRPTGGRNSIRYSELAPLFDTTRVYLVDNKSTDVASLNYQNDHSNFLTTVIQNNDYSPGEASTQTINLDDRSHWGGDLKTILHTNMPNVNEFMFTNKFKARVMVSRLPTKDNQVELKYEWVEFTLPEGNYSETMTIDLMNNAIVEHYLKVGRQNGVLESDIGVKFDTRNFRLGFDPVTGLVMPGVYTNEAFHPDIILLPGCGVDFTHSRLSNLLGIRKRQPFQEGFRITYDDLEGGNIPALLDVDAYQASLKDDTEQGGGGAGGSNSSGSGAEENSNAAAAAMQPVEDMNDHAIRGDTFATRAEEKRAEAEAAAEAAAPAAQPEVEKPQKKPVIKPLTEDSKKRSYNLISNDSTFTQYRSWYLAYNYGDPQTGIRSWTLLCTPDVTCGSEQVYWSLPDMMQDPVTFRSTRQISNFPVVGAELLPVHSKSFYNDQAVYSQLIRQFTSLTHVFNRFPENQILARPPAPTITTVSENVPALTDHGTLPLRNSIGGVQRVTITDARRRTCPYVYKALGIVSPRVLSSRTFKKKKKKKKKK
modifications: left off: small tags and cut ends
notes: non-covalent complex of HerPBK10, a small double-stranded nucleic acid and intercalated Dox
relation of CD50 to cell surface HER2 level [1]: inversely correlates with cell surface HER2 level
release of Dox from the conjugate in serum [2]: no significant release of Dox
Dox retention by the conjugate in serum ([2]; each time point): completely retained
echocardiogram: stroke volume, cardiac output, left ventricular internal dimension and volume [3]: no effect
toxicity relative to the equivalent concentration of Dox ([4]; 0.5 uM or 1 uM): 8-10 times
less HerDox eliciting the same toxicity as Dox [4]: 10 ×
